Results on five substances are retold here after publication PMC3776475.

For experiment [1], the target named is JR-FL SOSIP.R6-IZ-D7324 gp140 expressed in 293S GnTI^-/- cells (HIV-1 isolate JR-FL (subtype B)). Put plainly: native gel or EMSA. Background: In EMSA bound probe runs differently from free probe, usually more slowly.
For experiment [2] the target is unchanged. Put plainly: SEC. (In general: Size exclusion chromatography separates by hydrodynamic size, large species first.)
Experiment [3] deals with JR-FL SOSIP.R6-IZ-D7324 gp140 expressed in 293T cells (HIV-1 isolate JR-FL (subtype B)). Put plainly: native gel or EMSA.
The target in experiment [4] is KNH1144 SOSIP.R6 MPER gp140 expressed in 293S GnTI^-/- cells with furin (HIV-1 isolate KNH1144 (subtype A)). Nature of the experiment: SEC.
Experiment [5] concerns the target KNH1144 SOSIP.R6 MPER gp140 expressed in 293T cells with furin and kifunensine (HIV-1 isolate KNH1144 (subtype A)). Nature of the experiment: native gel or EMSA.
Experiment [6] has as its target KNH1144 SOSIP.R6 MPER gp140 expressed in 293T cells with furin, without kifunensine (HIV-1 isolate KNH1144 (subtype A)). Put plainly: native gel or EMSA.

By stoichiometry N is commonly meant the number of molecules, sites or subunits per partner or assembly. As for “JR-FL SOSIP.R6-IZ-D7324 gp140 expressed in 293S GnTI^-/- cells”, the stoichiometry N in experiment [1] and in experiment [2] was 3 throughout.
Turning to “JR-FL SOSIP.R6-IZ-D7324 gp140 expressed in 293T cells”, the stoichiometry N in experiment [3] worked out at 3.
“KNH1144 SOSIP.R6 MPER gp140 expressed in 293S GnTI^-/- cells with furin (complex)” returned a stoichiometry N in experiment [4] of 3.
“KNH1144 SOSIP.R6 MPER gp140 expressed in 293T cells with furin and kifunensine (complex)” showed a stoichiometry N in experiment [5] of 3.
As to “KNH1144 SOSIP.R6 MPER gp140 expressed in 293T cells with furin, without kifunensine (complex)”, the stoichiometry N in experiment [6] was 3.
